Marks after values point to notes of the source that are not given here.
Columns and labels:
[1] = molecular target: T1, HLA-A0201 molecules on T2 cells (Homo sapiens, UniProt P04439, D140Y/D185E/D98H/E176V/E277Q/G131W/G231S/I119V/I121R/I166T/I218V/L300P/L318F/N151K/N90K/P208A/P217A/Q86G/Q94H/R138H/R169H/T345S); test: Capacity of PSA derived peptides to bind and stabilize HLA-A0201 molecules on T2 cells (BB7.2 antibody, flow cytometry); assay type: cell-based; conditions: for Fluorescence Index (FI): T2 cells; for HLA-A0201 binding as judged by Fluorescence Index (FI) values: membrane-bound HLA-A0201 molecules on T2 cells
T1 construct: endogenous in cells; host or cells: T2 cell line (Dr. Peter Creswell, Yale University)
Experimental: The ability of the PSA derived peptides described in Table 1 to stabilize membrane-bound HLA-A0201 molecule was assessed utilizing the T2 cell line (Dr. Peter Creswell, Yale University). The cell line has been well documented to have a defective TAP (i.e. Transporter for Antigen Processing) transporter function. As a result, the majority of intracellularly generated peptides are not transported into the endoplasmic reticulum and thus are unable to associate with newly synthesized HLA class 1 MHC molecules (i.e. HLA-A0201; Salter, R D and Creswell, P. (1986) EMBO J 5:943). […] The stability of the surface HLA-A0201 molecules can be restored upon interaction with suitable exogenous peptides. The stabilization of the conformation of the class 1 MHC molecules is accompanied by the formation of an immunodominant epitope recognized by a mouse monoclonal antibody (designated BB7.2; American Type Culture Collection (ATCC)). Thus, the detection of this specific epitope is indicative of stable membrane-bound HLA-A0201 molecules loaded with peptide. Subsequent dissociation of peptides from the HLA class 1 MHC molecules results in the loss of BB7.2 monoclonal antibody binding.
T2 cells were propagated in Iscove's complete medium (iscove's medium supplemented with 10% heat-inactivated bovine serum, 120.0 units per ml of penicillin G sodium, 120 μg per ml of streptomycin sulphate, and 0.35 mg per ml of L-glutamine). The ability of PSA peptides (Table 1) to bind and stabilize surface HLA-A0201 molecules on T2 cells was determined utilizing a protocol documented in the art (Deng, Y. (1997) J Immune 158:1507-1515). In essence, 0.5×10^6 T2 cells were incubated with 125.0 μM of the test peptide in 200.0 μl of serum-free culture medium (Iscove's medium supplemented with 120.0 units per ml of penicillin G sodium, 120.0 μg per ml of streptomycin sulphate and 0.35 mg per ml of L-glutamine) overnight at 37° C. Subsequently, cells were washed twice with Iscove's medium (without bovine serum) to remove free PSA peptide. To the cell pellet was added 1.0 ml of complete Iscove's medium (supplemented with fetal bovine serum (10% final)) containing 5.0 μg per ml of brefeldin A (Sigma), 12.5 μg per ml of anisomycin (Sigma) and 5.0 μg per ml of cyclohexamide (Sigma). […] The cells were subsequently incubated 30 min on ice prior to two washes with ice-cold PBA (phosphate buffered saline (pH 7.2) containing 2.0% bovine serum). 100.0 μl of PBA containing 5.0 μg of monoclonal antibody BB7.2 was added to each test sample. The reaction was allowed to proceed on ice for 45 min. Cells were then washed three times with ice-cold PBA. The binding of BB7.2 was detected via the addition of 100.0 μl of PBA containing […] of goat anti-mouse IgG-Fc fluorescein (FITC) conjugate (BETHYL Laboratories Inc.). After a 30 min incubation on ice, cells were twice washed with ice-cold PBA, and twice with ice-cold PBS (pH 7.2). Cells were immediately fixed by the addition of 50.0 μl of 1.0% paraformaldehyde. Samples were analyzed by Flow Cytometry. Results were expressed in units of Fluorescence Index (FI), calculated by the equation: […]
Mean Fluorescence (MF) of experimental sample (peptide treated)−MF of control sample (cells not peptide treated) MF of control sample (cells not peptide treated)
An FI value of 0.5 or greater was deemed to be significant.

A2Kb transgenic mouse = test: Immunogenicity of PSA peptide in A2Kb transgenic mice (51Cr-release CTL assay); assay type: in vivo; conditions: 100.0 μg peptide subcutaneously in IFA with I-Ab-restricted peptide; spleenocytes re-stimulated in vitro; 4 hr 51Cr-release, P815-A2Kb targets; FIG. 1
Experimental: The A2Kb transgenic mouse was used to assess the immunogenicity of the HLA-A0201 binding PSA peptides. Mice of the B1O background (transgenic for the A2Kb chimeric gene) were purchased from the Scripps Clinic in California, USA. Mice were injected subcutaneously at the base of the tail with a dose of inoculum prepared by emulsifying 100.0 μg of the test peptide and 100.0 μg of an I-A^b-restricted peptide (described in Milich, D. R. et al. (1987) J. Immune 139: 1223-1231) in incomplete Freund's adjuvant (IFA). Spleens of the experimental animals were collected on the 10th or 11th day post immunization. Spleenocytes of the experimental mice were prepared and cultured to enrich for CTLs before being assessed for effector activity. In vitro re-stimulation of the in vivo generated CTLs was performed by co-culturing in a 25 cm^2 tissue culture flask 3×10^7 responder cells (i.e. spleenocytes) with 1.3×10^7 irradiated autologous LPS (lipopolysaccharide)-blasts which had been pulsed with the respective peptide (100.0 μg per 10^8 cells). Cultures were kept in a 37° C., humidified CO2 incubator for 6-7 days before being tested for effector function in a standard 4 hr in vitro ^51Cr-release CTL assay as follows. The responders were harvested from the 6-7 day cultures and washed twice with RPMI-1640 medium (without bovine serum). […] Supernatant aliquots were then removed and counted for radioactivity.

[2] = 125.0 μM peptide overnight at 37° C., then 3.0 hr de-stabilization step, FI of 0.5 or greater deemed significant

Row | Sequence | Fluorescence Index (FI) [1, 2] | Immunogenicity / epitope-specific CTL response (A2Kb transgenic mouse) | HLA-A0201 binding as judged by Fluorescence Index (FI) values [1] | Fluorescence Index (FI) ([1]; 125.0 μM peptide, analysis did not include 3 hr de-stabilization step)
1 | DLPTQEPAL (CLP315) [CLP-315, PSA derived peptide, preproprotein positions 140-148] | 0 | – | – | –
2 | KLQCVDLHV (CLP316) [CLP-316, PSA derived peptide, preproprotein positions 170-178] | 2.7 | immunogenic and capable of eliciting an epitope-specific CTL response | demonstrated HLA-A0201 binding | –
3 | DLHVISNDV [CLP-317] | 0 | – | – | –
4 | VLVHPQWVL [CLP-314] | 1.1 | – | demonstrated HLA-A0201 binding | –
5 | PLYDMSLLK (CLP320) [CLP-320] | – | – | does not exhibit binding | 0.2**
6 | MWVPVVFL (CLP313) [CLP-313, PSA derived peptide, preproprotein positions 1-8] | 1.0 | – | demonstrated HLA-A0201 binding | –

From patent publication US20020132976A1, “Immunogenic peptides derived from prostate-specific antigen (PSA) and uses thereof” (priority 2000, published 2002)
